Measured values as given in paper PMC3876883.

What was measured:
Assay in all cases: single-particle photobleaching
[1] = target: K2P3–WT, tandem subunit of K2P3 and wild-type K2P1 (human) (UniProt O14649)
[2] = target: K2P9–WT, tandem subunit of K2P9 and wild-type K2P1 (human) (UniProt Q9NPC2)
[3] = target: WT–K2P3, tandem subunit of wild-type K2P1 and K2P3 (human) (UniProt O00180)
[4] = target: WT–K2P9, tandem subunit of wild-type K2P1 and K2P9 (human) (UniProt O00180)

UniProt O14649, sequence (O14649 whole entry, looked up, tested part not stated): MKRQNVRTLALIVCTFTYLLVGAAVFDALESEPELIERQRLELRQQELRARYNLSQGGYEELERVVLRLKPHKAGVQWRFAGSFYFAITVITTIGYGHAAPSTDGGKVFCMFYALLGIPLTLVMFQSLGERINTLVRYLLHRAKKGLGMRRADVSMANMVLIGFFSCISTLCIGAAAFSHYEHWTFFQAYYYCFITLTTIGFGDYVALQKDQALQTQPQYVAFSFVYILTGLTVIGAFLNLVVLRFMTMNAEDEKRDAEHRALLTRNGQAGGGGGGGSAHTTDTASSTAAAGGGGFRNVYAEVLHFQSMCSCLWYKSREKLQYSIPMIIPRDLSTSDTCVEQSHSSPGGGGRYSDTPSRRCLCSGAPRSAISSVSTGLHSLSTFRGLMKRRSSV
UniProt Q9NPC2, sequence (Q9NPC2 whole entry, looked up, tested part not stated): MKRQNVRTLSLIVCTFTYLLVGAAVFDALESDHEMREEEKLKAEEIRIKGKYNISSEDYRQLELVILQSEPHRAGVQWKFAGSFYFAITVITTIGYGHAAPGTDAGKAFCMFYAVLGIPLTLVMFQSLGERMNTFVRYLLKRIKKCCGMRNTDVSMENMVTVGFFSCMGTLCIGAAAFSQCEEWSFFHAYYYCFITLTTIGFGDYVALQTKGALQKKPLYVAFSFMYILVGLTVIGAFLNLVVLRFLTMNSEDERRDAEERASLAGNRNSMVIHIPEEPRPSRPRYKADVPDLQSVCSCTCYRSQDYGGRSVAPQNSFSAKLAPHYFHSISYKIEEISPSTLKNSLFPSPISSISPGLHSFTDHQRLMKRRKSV

GFP-SUMO1 (from UniProt P63165 1-97) (natural protein)
1: stoichiometry N (SUMO1 per channel) [1] | stoichiometry N (SUMO1 per channel) [2] | stoichiometry N (bleaching step per particle) [3] | stoichiometry N (bleaching step per particle) [4]
